In article PMC9844003, “A pH-dependent anti-CD47 antibody that selectively targets solid tumors and improves therapeutic efficacy and safety” (Journal of Hematology & Oncology, 2023):
Positions count from the first letter of the chain named. In names and notes the source's numbering stands.

What was measured:
[1] = target: T1, extracellular domain of CD47 fused to a His(×6)-Avi-tag (Homo sapiens, UniProt Q08722); experiment: ELISA; CD47-ECD coated on plates; serial dilutions of phage-scFvs, detected with anti-M13-HRP; pH 7.4 and pH 6.0; settings: one partner purified
T1 construct: CD47, extracellular domain; also called CD47-ECD

[2] = target: T1, extracellular domain of CD47 fused to a …; experiment: ELISA; CD47-ECD coated on plates; phage-scFv site saturation mutants of BC31M4, detected with anti-M13-HRP; pH 6.5 and pH 7.4; settings: one partner purified
[3] = target: T1, extracellular domain of CD47 fused to a …; experiment: ELISA; CD47-ECD coated on plates; serial dilutions of BC31M4 mutants in hIgG1 form; pH 7.4 and pH 6.8; settings: both partners purified
[4] = target: T1, extracellular domain of CD47 fused to a …; experiment: SPR; Biacore T200, 25 °C; anti-human IgG immobilised on a CM5 chip, antibodies (hIgG1 form) captured, twofold serially diluted CD47-ECD injected; pH 6.8 buffer; 1:1 binding model; settings: both partners purified
[5] = target: T1, extracellular domain of CD47 fused to a …; experiment: SPR; Biacore T200, 25 °C; anti-human IgG immobilised on a CM5 chip, antibodies (hIgG1 form) captured, twofold serially diluted CD47-ECD injected; pH 7.4 buffer; 1:1 binding model; settings: both partners purified
[6] = target: T2, full-length human CD47 stably expressed on CHO cells (CHO-hCD47) (human, UniProt Q08722); experiment: flow cytometry on cells; blocking assay of BC27: serially diluted antibody incubated with cells in the presence of bio-SIRPα-Fc, detected with streptavidin-FITC; pH 6.0, 6.5, 6.9 and 7.4; up to 1 µM antibody; settings: one partner purified
T2 construct: full-length human CD47, stably expressed on CHO cells; also called CHO-CD47; cell-surface CD47; source: CHO cells, stably expressing, on cells

[7] = target: T2, full-length human CD47 stably expressed …; experiment: flow cytometry on cells; serially diluted antibodies (hIgG1 form) incubated with CHO-CD47 or tumor cells, detected with goat anti-human IgG-FITC; pH 6.8 and pH 7.4 separately; settings: one partner purified
[8] = target: T3, cell-surface CD47 on Raji, Jurkat and MDA-231 tumor cells (human (endogenous in Raji, Jurkat, …, UniProt Q08722)); experiment: as above; settings: one partner purified
T3 construct: CD47 endogenous on human tumor cell lines
T3 sequence (Q08722 19-323): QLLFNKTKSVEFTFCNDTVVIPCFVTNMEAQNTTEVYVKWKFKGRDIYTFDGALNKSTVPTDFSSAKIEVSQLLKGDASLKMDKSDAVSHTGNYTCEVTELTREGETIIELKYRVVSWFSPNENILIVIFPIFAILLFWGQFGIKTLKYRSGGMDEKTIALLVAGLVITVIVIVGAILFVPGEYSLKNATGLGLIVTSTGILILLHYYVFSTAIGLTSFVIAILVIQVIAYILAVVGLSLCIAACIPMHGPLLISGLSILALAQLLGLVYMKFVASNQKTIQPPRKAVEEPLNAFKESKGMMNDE

T1 sequence (Q08722 whole entry, looked up, the tested form may be a part): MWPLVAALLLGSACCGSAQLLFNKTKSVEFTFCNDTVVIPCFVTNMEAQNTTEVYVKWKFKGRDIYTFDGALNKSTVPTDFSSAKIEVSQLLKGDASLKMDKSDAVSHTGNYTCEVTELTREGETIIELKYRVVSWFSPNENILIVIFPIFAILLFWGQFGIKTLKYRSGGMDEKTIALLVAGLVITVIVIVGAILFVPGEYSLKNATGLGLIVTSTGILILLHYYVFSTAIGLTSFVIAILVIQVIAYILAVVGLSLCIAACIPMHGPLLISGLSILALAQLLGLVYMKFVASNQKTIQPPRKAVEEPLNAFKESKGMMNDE
T2 sequence (Q08722 19-323): as the sequence (Q08722 19-323) above

B1: BC27 (phage-scFv form) (scFv, V domains shown)
VH: QVQLVQSGAEVKKPGASVKVSCKASGYTFTSYGISWVRQAPGQGLEWMGWISAYNGNTNYAQKLQGRVTMTTDTSTSTAYMELRSLRSDDTAVYYCARGKVYFDYWGQGTLVTVSS
VL: EIVLTQSPATLSLSPGERATLSCRASQSLSRNHLAWYQQKPGQPPRLLIHWASTRESGVPDRFSGSGSGTDFTLTISSLQAEDVAVYYCQQYYTASWTFGQGTKVEIK
notes: VH of BC27: as the variable region of the heavy chain of m6 (PDB 7WN8) except in HCDR3; scFv linker of the library; VL of BC27: as the variable region of the light chain of m6 (PDB 7WN8) except in LCDR3
[1]
  binding result: binds

B2: BC31M4 (phage-scFv form) with VL H38 replaced by lysine (scFv, V domains shown)
VH: B1 VH with K100A
VL: B1 VL with H33K, Y92H, Y93T, T94Q, A95N, S96T
notes: VH of BC31M4: as the variable region of the heavy chain of m6 (PDB 7WN8) with A instead of T at residue 108 of HCDR3 (IMGT numbering); scFv linker; VL of BC31M4 (as the variable region of the light chain of m6, PDB 7WN8) with H38 (LCDR1, IMGT numbering) changed; also called H38K
[2]
  binding result: binds

B3: BC31M4 (hIgG1 form) with the 38R/55R substitution (antibody, V domains shown)
VH: B1 VH with K100A
VL: B1 VL with H33R, H50R, Y92H, Y93T, T94Q, A95N, S96T
notes: VH of BC31M4: as the variable region of the heavy chain of m6 (PDB 7WN8) with A instead of T at residue 108 of HCDR3 (IMGT numbering); constant region of the human IgG1 heavy chain (from the expression vector); VL of BC31M4 (as the variable region of the light chain of m6, PDB 7WN8) with histidine-to-arginine substitutions, IMGT numbering; constant region of the light chain from the hIgG1 …
[3]
  binding result: binds

B4: BC31M4 (phage-scFv form) with VL H107 replaced by arginine (scFv, V domains shown)
VH: B1 VH with K100A
VL: B1 VL with Y92R, Y93T, T94Q, A95N, S96T
notes: VH of BC31M4: as the variable region of the heavy chain of m6 (PDB 7WN8) with A instead of T at residue 108 of HCDR3 (IMGT numbering); scFv linker; VL of BC31M4 (as the variable region of the light chain of m6, PDB 7WN8) with H107 (LCDR3, IMGT numbering) changed
[2]
  binding result: binds

B5: BC31M4 (phage-scFv form) with VL H107 replaced by lysine (scFv, V domains shown)
VH: B1 VH with K100A
VL: B1 VL with Y92K, Y93T, T94Q, A95N, S96T
notes: VH of BC31M4: as the variable region of the heavy chain of m6 (PDB 7WN8) with A instead of T at residue 108 of HCDR3 (IMGT numbering); scFv linker; VL of BC31M4 (as the variable region of the light chain of m6, PDB 7WN8) with H107 (LCDR3, IMGT numbering) changed; also called H107K
[2]
  binding result: binds

B6: BC31M4 (hIgG1 form) with the 55R/107R substitution (antibody, V domains shown)
VH: B1 VH with K100A
VL: B1 VL with H50R, Y92R, Y93T, T94Q, A95N, S96T
notes: as for B3
[3]
  binding result: binds

B7: BC31M4 (phage-scFv form), wild type (scFv, V domains shown)
VH: B1 VH with K100A
VL: B1 VL with Y92H, Y93T, T94Q, A95N, S96T
notes: VH of BC31M4: as the variable region of the heavy chain of m6 (PDB 7WN8) with A instead of T at residue 108 of HCDR3 (IMGT numbering); scFv linker; VL of BC31M4: as the variable region of the light chain of m6 (PDB 7WN8); also called wild-type BC31M4
[2]
  binding result: binds

B8: BC31M4 (phage-scFv form) with VL H38 replaced by arginine (scFv, V domains shown)
VH: B1 VH with K100A
VL: B1 VL with H33R, Y92H, Y93T, T94Q, A95N, S96T
notes: VH of BC31M4: as the variable region of the heavy chain of m6 (PDB 7WN8) with A instead of T at residue 108 of HCDR3 (IMGT numbering); scFv linker; VL of BC31M4 (as the variable region of the light chain of m6, PDB 7WN8) with H38 (LCDR1, IMGT numbering) changed
[2]
  binding result: binds

B9: BC31M5 (hIgG1 form) (antibody, V domains shown)
VH: B1 VH with K100T
VL: B1 VL with Y92H, Y93T, T94Q, A95N, S96T
notes: VH of BC31M5: as the variable region of the heavy chain of m6 (PDB 7WN8); constant region of the human IgG1 heavy chain (from the expression vector); VL of BC31M5: as the variable region of the light chain of m6 (PDB 7WN8); constant region of the light chain from the hIgG1 light-chain vector; IgG1
[4]
  fold higher binding affinity than BC31M4 at pH 6.8: ~3 fold
[5]
  pH-dependence (ratio of KD at pH 7.4 to KD at pH 6.8): ~1.9 fold

B10: BC27 (hIgG1 form) (antibody, V domains shown)
VH: B1 VH
VL: B1 VL
notes: VH of BC27, parent of BC31M4 and BC31M5: as the variable region of the heavy chain of m6 (PDB 7WN8) except in HCDR3; constant region of the human IgG1 heavy chain (from the expression vector); VL of BC27: as the variable region of the light chain of m6 (PDB 7WN8) except in LCDR3; constant region of the light chain from the hIgG1 light-chain vector; IgG1; Random mutations were introduced only into …
[6]
  binding result: binds

B11: BC31M4 (hIgG1 form) (antibody, V domains shown)
VH: B1 VH with K100A
VL: B1 VL with Y92H, Y93T, T94Q, A95N, S96T
notes: VH of BC31M4: as the variable region of the heavy chain of m6 (BC31M5, PDB 7WN8) with alanine instead of threonine at residue 108 of HCDR3 (IMGT numbering); constant region of the human IgG1 heavy chain (from the expression vector); VL of BC31M4: as the variable region of the light chain of m6 (BC31M5, PDB 7WN8); only one amino acid (heavy chain 108) differs between the two antibodies; constant …
[7]
  binding result: binds
[8]
  binding result: binds
